Test results published in patent US20240141372A1, “TRANSGENIC BANANA PLANTS HAVING INCREASED RESISTANCE TO FUSARIUM OXYSPORUM TROPICAL RACE 4 AND METHODS OF PRODUCING SAME” (Elo Life Systems, priority 2022, published 2024).
Read-outs that look alike come from different tables or passages of the source.

Legend:
Foc_TR4 = experiment: In vitro spore germination and mycelial growth assay; type: cell-based, Fusarium oxysporum f.sp. cubense Tropical Race 4
[1] = tested on: TR4 Fusarium oxysporum f sp. cubense (Foc); experiment: ARSS greenhouse assay of acclimated tissue culture banana plants; type: in vivo; settings: transgenic banana lines per payload, FIG. 15
[2] = Foc_TR4 spores, purified Pichia-secreted protein, low ionic strength media, 25° C., A595 at 48 hours, read-out: IC50 (μM, CE fraction)

Row | Molecule | IC50 (Foc_TR4; [2]) | IC50 (Foc_TR4; Foc_TR4, in vitro fungal growth inhibition assay, read-out: IC50) | disease necrosis [1]
1 | Ma08_p22790.1: snakin antimicrobial protein, Musa acuminata (protein, listed as Musa acuminata) RISLAPTAQPGNPLGPTPQPIKFPMYGATPGSLQPQECSGRCAGRCSATAYKKPCMFFCQKCCAKCLCVPPGTYGNKQVCPCYNNWKTKRGGPKCP | 0.52 ± 0.08 µM | – | –
2 | Ma10_p18110.1: snakin antimicrobial protein, Musa acuminata (protein, listed as Musa acuminata) GSAFCGSKCKVRCSKASVKDRCLKYCGLCCEQCRCVPSGTYGHKDECPCYRDKYTGSGKRRRPKCP | 1.31 ± 0.03 µM | – | –
3 | Ma07_p17800.1: TLP antimicrobial protein, Musa acuminata (protein, listed as Musa acuminata) ATFDIVNQCSFTVWAAAVPGGGRQLDPSQTWSINVNPGTTGGRVWARTDCSFDGSGSGSCQTGDCGGLLECQGYGTPPNTLAEFALNQFQNMDFIDISLVDGFNVPMDFSPTSGDCRGIRCSADINGQCPAELRAPGGCNNPCTVFKTDEYCCTSGSCGPTNYSMFFKNNCPDAYSYPKDDATSTFTCPGGTNYRVVFCP | > 25 µM | – | –
4 | Ma02_p17990.1: TLP antimicrobial protein, Musa acuminata (protein, listed as Musa acuminata) QYPAMTLTVVNNCPFTVWPAIQPNSGHDVLERGGFALPTVTHRSFPAPTQHWSGRIWARTGCTYANGRFSCATGDCGGRLECGGLGGAAPATLAQVTLHHGGQQDLSSYGVSLVDGFNVGMTVTPHEGKGRCPVVGCRENLLATCPDVLQLRAPAGGGQVVGCKSGCQAFGTDELCCRNMYNSPRTCRASSYSEFFKHACPATFTYAHDSPSLTHECAAPRELKVIFCH | 0.64 µM | – | –
5 | Sm-AMP-D1: Sm-AMP-D1 anti-microbial peptide, tested as purified protein in vitro (protein) MAKTVLGIHVTFLTLLFAVILLNDVMYTPVEGKICERASGTWKGICIHSNDCNNQCVKWENAGSGSCHYQFPNYMCFCYFNC | – | 2.2 µM | 27%
6 | Ma06_p33170.1: TLP antimicrobial protein, Musa acuminata (protein, listed as Musa acuminata) NFEIVNRCSYTVWAAAVPGGGRQLNQGQSWTINVKAGTTGGRIWGRTGCSFDGSGHGRCQTGDCGGLLACTAYGSPPNTLAEFALNQYSNQDYVDISLVDGFNVPMDFSPTSGGCRGMRCTADINKKCPTALKAPGGCNNPCTVFKTDQYCCNSGSCQPTEYSKFFKSNCPDAYSYPKDDPTSLVACPGGTNYRVVFCP | 0.052 ± 0.002 µM | – | –
7 | Ma06_p09450.1: snakin antimicrobial protein, Musa acuminata (protein, listed as Musa acuminata) ADSAYCKSKCKVRCAKAGVMDRCLYYCGMCCEECKCVPSGTYGNKDECPCYRDKVTKDDKKKSKCP | 2.71 ± 0.53 µM | – | –
8 | Ma03_p07220.1: TLP antimicrobial protein, Musa acuminata (protein, listed as Musa acuminata) ATLALYNKCRETVWPGIQPSAGKAVLARGGFQLLPNQAYSLRLPAGWSGRVWGRRGCAFDPATGRGRCATGDCGGALYCNGLGGAPPATLAEFTLGQGRQQDFYDVSLVDGYNLGMSMTPFRGSGQCGRAGCVSDLNEVCPAGLAVRGGTDNRVVACKSACSAFGSPRYCCTGSFGGPQQCKPTAYSRLFKAACPRAYSYAYDDPTSILTCTGASYLVTFCPQH | 0.009 ± 0.0005 µM | – | –
9 | Ma07_p21450.1: snakin antimicrobial protein, Musa acuminata (protein, listed as Musa acuminata) KDAFMEAGYAKAPVVAPVPAPPAPRIIKDTKECGDACKDRCKLHSRQNVCSRACITCCSVCKCVPPGTYGHTELCGKCYTDWKTHGNRTKCP | 0.9 ± 0.05 µM | – | –
10 | Ma09_p26730.1: TLP antimicrobial protein, Musa acuminata (protein, listed as Musa acuminata) ATFEIVNWCPFTVWAAAVPGGGRQLDRGQTWVLDVNPGTTGGRIWARTGCSFDGSGSGSCQTGDCGGVLACQGYGSPPNTLAEFALNQFDNLDFLDVSLVDGFNVPMEFSPITGNCSAIRCLADIKGQCPAELWTPGGCNNPCTVFKTDEYCCTSGSCGPTNYSNFFKSNCPDAYSYPKDDATSTFTCPGNGDYKVIFCPSDGYPTRFGRTAVRFVIPRA | > 31 µM | – | –
11 | Ma09_p13940.1: snakin antimicrobial protein, Musa acuminata (protein, listed as Musa acuminata) RKAVVEDEPPVSGGGDGKPPVPVIDCAGLCGVRCSRHSRPNLCKRACGTCCFRCKCVPPGTSGNREMCGACYTNMTTHGNRTKCP | 0.38 ± 0.01 µM | – | –
12 | Ma06_p20150.1: snakin antimicrobial protein, Musa acuminata (protein, listed as Musa acuminata) EREINCEAKCSHRCSKASRHKMCMRACVDCCHKCHCVPPGTYGHKEECPCYAHMKTRHGKPKCP | 0.53 ± 0.01 µM | – | –
13 | Ma09_p27770.1: snakin antimicrobial protein, Musa acuminata (protein, listed as Musa acuminata) GSLKPSECNNKCDFRCSATSHKKPCLFFCKECCATCLCVPPGTYGNKEACPCYNNWKTKEGGPKCP | 0.08 ± 0.003 µM | – | –
14 | Ma02_p13180.1: TLP antimicrobial protein, Musa acuminata (protein, listed as Musa acuminata) ATFTLTNNCEYTVWPGVLSSAGTAPLSITGFALQQGESRSLDVPAAWSGRFWGRTLCAADASGKFSCGTGDCGSGAVECSGSGAAPPATLAEFTLDGSGGMDFYDVSLVDGYNLPMLVVPQGGSGGACSSTGCLVDLNGVCPSDLKVVLPTSEGGSESVACRSACETFGSPQYCCSGDYGNPNTCKPSSYSQFFKNACPRAYSYAYDDATSTFTCASANYLITFCPSTTSQKSSDSNPEAAGIPSSNNSTMIYSSEEVSHATPTVPRVAVALALAVVALCLGF | > 30 µM | – | –
15 | Ma06_p33150.1: TLP antimicrobial protein, Musa acuminata (protein, listed as Musa acuminata) TFEIVNRCSYTVWAAAVPGGGRQLNQGQSWTINVNAGTTGGRIWGRTGCSFDGSGRGRCQTGDCGGVLSCTAYGSPPNTLAEFALNQFNNLDFFDISLVDGFNVPMDFSPTSGGCRGIRCAADINGQCPGALKAPGGCNNPCTVFKTDQYCCNSGSCSPTDYSRFFKRNCPDAYSYPKDDQTSTFTCPGGTNYRVVFCP | 0.029 ± 0.001 µM | – | –
